The values that follow come from patent publication US10143747B2, “Breast cancer therapeutics” (IMBA—INSTITUT FÜR MOLEKULARE BIOTECHNOLOGIE GMBH, priority 2010, dated 2018).

The subject of assay [1] is human breast cancer cells as well as cultured MECs. Briefly: RANKL mRNA expression in human breast cancer cells and cultured MECs after MPA stimulation in vitro. The format is cell-based. To be noted: MPA 0.1 μM. As for the experimental part: a, Analysis of RANKL mRNA expression in human breast cancer cells as well as cultured MECs after MPA stimulation (0.1 μM). Expression was determined by qRT-PCR in unstimulated cells or cells stimulated with MPA for the indicated time points. […] Data were obtained by qRT-PCR and are shown as fold change compared to MCF10A (b) and purified primary MECs (c) (+/−sem) (n=3).
MPA (medroxyprogesterone acetate, a representive progestin) pellets were implanted into female mice and RANKL expression was assayed. […] Since MPA can induce transcription of prolactin and the prolactin receptor in breast cancer cells and prolactin can directly induce RANKL via Jak2/Stat5 signaling, it was tested whether MPA induces RANKL in the mammary gland of prolactin receptor knock-out mice.

Assay [2] has as its system primary mouse mammary gland epithelial cells (MECs). As to the kind of experiment: Western blotting of RANKL-stimulated primary mouse mammary gland epithelial cells. The format is cell-based. To be noted: RANKL 1 μg/ml. As for the experimental part: a, Western blotting for phosphorylated (P) IKKα, total IKKα, phosphorylated (P) p65 NFκB, total p65 NFκB, phosphorylated (P) IκBα, and total IκBα in isolated primary mouse mammary gland epithelial cells (MECs) in response to RANKL stimulation (1 μg/ml). β-actin is shown as loading control. b, Western blotting for IKKα, IKKβ, IKKγ, phosphorylated (P) p65 NFκB, total p65 NFκB, phosphorylated (P) IκBα, and total IκBα in pooled late stage mammary adenocarconimas (n=4 for each lane) that developed in control, RANK^Δmam and IKKΔ^Δmam females. β-actin is shown as loading control c, Expression of RANK, CyclinD1, and p21 mRNA in late stage mammary adenocacinomas that developed in control, RANK^Δmam, and IKKα^Δmam females. Expression was determined by qRT-PCR. Data are mean values+/−sem. n=4 per group. d, Soft-Agar Colony Formation Assay. Growth of human SKBR3 breast cancer cells in soft agar in response to stimulation with RANKL (1 μg/ml) or EGF (100 ng/ml). Anchorage-independent, macroscopic colonies formed after 18 days in culture with RANKL, which was prevented by the decoy receptor OPG (1 μg/ml). […] Apoptosis was detected by immunostaining for active Caspase 3. f, Apoptotic nuclei of epithelial cells (arrows) are shown for representative mammary gland sections. Magnifications×40. g, Quantification of mammary epithelial apoptosis. A minimum of 5000 nuclei was counted for each mouse. […]
(A western blot detects proteins with antibodies after separation by electrophoresis.)

Consider `CC(=O)O[C@]1(C(C)=O)CC[C@H]2[C@@H]3C[C@H](C)C4=CC(=O)CC[C@]4(C)[C@H]3CC[C@@]21C` [MPA, medroxyprogesterone acetate], for which the “RANKL mRNA induction in SKBR3 cells” value in assay [1] is reported as “only slightly increased”.

B1: RANKL: recombinant RANKL protein, ligand of RANK, used as stimulus (1 μg/ml or 1 μg i.p.) (protein, UniProt O35235 139-316, looked up)
Tumor necrosis factor ligand …: FSGAPAMMEGSWLDVAQRGKPEAQPFAHLTINAASIPSGSHKVTLSSWYHDRGWAKISNMTLSNGKLRVNQDGFYYLYANICFRHHETSGSVPTDYLQLMVYVVKTSIKIPSSHNLMKGGSTKNWSGNSEFHFYSINVGGFFKLRAGEEISIQVSNPSLLDPDQDATYFGAFKVQDID
On to B1, for which, in assay [2], the “p65 NFκB and IκBα phosphorylation” value was “resulted in p65 NFκB and IκBα phosphorylation”; the “phosphorylation of p38-MAPKs and ERK” value is “triggered phosphorylation of p38-MAPKs and ERK”.
